Data: a protein production outcome set (Wang et al. 2014)
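Note: failed if final PepcDB status was selected cloned or expressed and not failed if soluble or beyond.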

Test: label from the status in PepcDB records
With “MKAKGNQKTKVNIVTLGCSKNLVDSENLLTQLRGNGIEAEHESKNDNSNVVVINTCGFIDNAKQESIDTILRYIDAKENGLIDKIYVSGCLSQRYKDDMEREMPQVDAFFGSNELPAILKKFRADYKHELVGERLLTTPSHYAYVKIAEGCDRPCSFCAIPVMRGKHVSTPMEDLVKQAKGMAAKGTKELILIAQDLTYYGLDIYKKRNLSDLLKNLSDVEGIDWIRLQYAYPSGFPLDVLDVMAERSNICKYIDMPLQHGSSDMLKLMRRGIDRPKTEDLIKTIRDKVPGIAFRTTMIIGHPGETEKDFDELCSFVEEQRFDRLGAFTYSHEEHTHSYSMEDTIPQEEKEERQATIMSIQEGISAELNEKKIGNTYKVLFDRKEGGYFIGRTEHDSPEVDNEVMVSAKDQYVRIGDFANVKINDAAEFDLFGEIVK” the protein production was “failed”. With “MKALASRGTRNHLAGEAAENSVLRDYERRGYHLVRRRWRGRCGEIDLIARSGDEVVFVEVKQSRDFARAAESLGARQMKRLHAAAAEFLAEEPDGQLTPMRFDVALVDGTGRLEIVENAFGHG” the protein production was “failed”. In the case of “MKALIFAAAGLLLLLPTFCQSGMENDTNNLAKPTLPIKTFRGAPPNSFEEFPFSALEGWTGATITVKIKCPEESASHLHVKNATMGYLTSSLSTKLIPAIYLLVFVVGVPANAVTLWMLFFRTRSICTTVFYTNLAIADFLFCVTLPFKIAYHLNGNNWVFGEVLCRATTVIFYGNMYCSILLLACISINRYLAIVHPFTYRGLPKHTYALVTCGLVWATVFLYMLPFFILKQEYYLVQPDITTCHDVHNTCESSSPFQLYYFISLAFFGFLIPFVLIIYCYAAIIRTLNAYDHRWLWYVKASLLILVIFTICFAPSNIILIIHHANYYYNNTDGLYFIYLIALCLGSLNSCLDPFLYFLMSKTRNHSTAYLTK”, the protein production is reported as “failed”. In the case of “MKALIFAAGFGERMRPLTEHTPKPLLSVGGTPLIVWHLRKLAALGVDEVVINTSWLAEQFPQVLGDGSAFGLRLTYSYEGATPLETGGGMLHALPLLGDAPFLLVNGDIWTDFDFARLSHAPDGLAQLVLVDQPSYATRADFALDADGNVRADLPASLTYSGIGMYRPALLRDWQSVIGQLPEQPCTAPRFALAPILRAQMTARLINGIHHSGRWTDVGTPQRLAELDAQLLRDGS”, the protein production is reported as “failed”. In the case of “MKALNDSYDVVVVGAGPAGSMASYNASKNGAKTLLIEKSQEIGTPVRCAEAVPRLEDFGINPDPSFVKSYIRGGYLIAPNGKKIVVKGGKTDGYVVERKVFDKFLAIRSGQAGTQIAVKSRVTKIEKTDDGYNVFVNYLGDEYIVKSKIVIAADGVESNIAEYAGLKSKKNPKEICSCAEYEMTNVKLLNNEMMEFYFGDICPKGYIWLFPKGDTVNVGIGVIDSKKRAIDYLDEFLTHPLVEGRLDNAVPVEFKVGGDPVGGPIKKTVADNIMVVGDAAGHVSPLTGGGIGLSMDCGLMAGDVAAQSIKAENYSEEFLDLYEKKWKEKYYKLLMNDLKYKNILQKLSDDELNAIANSIPENLEEVDVGKLAIKIVAKAPSLLRHFKELL”, the protein production is reported as “failed”. With “MKALTVNKTIFILVIAASLLLGAAVGYIAHSLTAGGGGVVVTGSKAVSTGTSIGVYLTIKNNTNTTSCIVGADIAESVSGKVVVDIHKTVEEGGRVVMMPAGPICLGPGETLEMRQGPGSYHVMIMGDRSAIEKITEDGVVEIKVLVEQQVDAPITGP” the protein production was “failed”. With “MKARAILLASVLLVGCQASKHDGTVEQRAQSLSAAGQGEAGKFTSQARWLDDGTFYAQDQDLWTSIGDELKMGIPDNPRIREQKQKYLRNKSYLHDVTLRAEPYMYWIAGQVKKRNMPMELVLLPIVESAFDPHATSGANAAGIWQIIPSTGRNYGLKQTRSYDARRDVVASTTAALDMMQRLNKMFDGDWLLTVAAYNSGEGRVMKAVKANRSRGKPTDFWSLSLPHETKIYVPKMLALSDILKNSKRYGVKLPTADESRALARVRLDSPVDISQLADMAGMPVSKLKTFNAGVKGSTLGASGPKYVMVPQKHAAQLRESLASGDIAAVQPTQLADNTPLTSRSYKVRSGDTISGIASRLGVTTRDLQQWNNLRGSGLKVGQNLVIGAGSSAQRLANNSDSITYRVRKGDSLSSIAKRHGVNIRDVMRWNSDTDNLRPGDQLTLFVKNNDRPES” the protein production was “failed”. In the case of “MKCIESLGKTVDEAVKKALSELKVTEDKVEIKVIDEGSKGLLNIIGKREAKVKVTLKTDYIDEVRTFLRKVFEDMNLVIEIKIKEIGNDLFVNLFGKNIGLLIGYRGETLDSLQYLVNLVANKNHADGKYKRVILDTENYRAKREETLKRLALKISKRVKEEKSPFKLEPMNPYERRVIHSALQNDKYVRTYSEGEEPHRRVVVELKKS”, the protein production is reported as “not failed”. In the case of “MKCYLTGCIAGPLAFSEDLELIDYEPFPVDEIPGRLAESQMGGVSPEERIMLERLTPEYDEVVVEASPSPEYAGFRNLRFEVPSRAGIHLRENLEDILAEILDMPAGDFIHDALMSVARERLRESLRETDRFIIQSINALDELDEETGKLIERLREWYSLHFPELDGIKSHEQYVELIAEYGDRDQILKNFRMDVDESLGSDITSEDLHILRGLAESIRGLQRLREETERYIDIKMEKLAPNLRALAGSNVGARLIAHAGGLRELAMLPSSTIQVLGAEKALFRHLKSGAKPPKHGVIFQHPSIRSSPWWIRGKVARLLAGKIAIAVRKDVFSREFDPGIVESFNERFEAIKSNNPKPPARKKGFRKKRK”, the protein production is reported as “failed”. For “MKDGEAATGQAASRPKRADARRNEKNLLDAAAAVFVRSGVEAPVRDIAAEAGVGTATIYRHFPTRADLIIGVYRHQVEACAEAGPALLASSPTPYAALAGWIDLFVDFLVTKHGLAAVLQSDSAGFETLHAYFLDRLVPVCTDLLAAATDSGEIDTDVPPLALMRGVGNLCIGAETPNPSYDARQLVRILIAGLRAAD”, the protein production was “not failed”. In the case of “MKDILWLMQKTLSVLLKNKKGLLIIISLPIIGTLISFSIYGNAGQGALNIGVINKENESIANDTVKFLEEINHVKVSKVKESEVEDKLTSKKLDGVITLQSGFSESVREGKPSNIEISSIKGDQVTAFIKSYLYNYIDNVAAISKVAGTDQSAFDTMYAGYQKSSFKVKTETLEDTSKNKDMTNQTMGYLIMFMLFSAVNLSGYILKEKENRTYFRLLSTPIDGKKFILSNVGVNMIILTVQIMITILFLTNVFHTNINMPFIVMVGVLMIFALIAIGMSLVIVAFSKNSSSANAMQNMVIVPTCLLAGCYFPYDIMPSAVQKVANFLPQRWLLDTVSKLQQGIPFSELYLNILILFAFAIAFFLIAIYKFGRNNDARNFV”, the protein production is reported as “failed”. For “MKDPLLNSLIYVSRYYGLANSPEALVNGLPLSDGKLTPFLLPRAAERAGLVAKENRAELEKISSLILPAILVLKGGDSCVLNSINMETREAEVTTLESGMVPISIPLEDLLEQYTGRYFLVKKQFR”, the protein production was “not failed”. In the case of “MKDSDKEKENGKMGCWSIEHVEQYLGTDELPKNDLITYLQKNADAAFLRHWKLTGTNKSIRKNRNCSQLIAAYKDFCEHGTKSGLNQG”, the protein production is reported as “not failed”. For “MKEDRVVFIFGPTAVGKSNILFHFPKNKAEIINVDSIQVYKEFNIASSKPSKNLMKHIKHHLVDFLDPEKDYTIGIFYEQALKIVKEIRQKKKIPIFVGGTAFYFKHLKDGFPSTPLVTSKIRIYVNNLLELKGKSYLLKELKNVDPIRFNMLNKNDIYRIKRSLEVYYQTGIPISQFQKKQSSEFKNIVIIGLKRSFEDLKTRISIRINEMLNSGLLSEIKGLFSKGYNENTPAFKGIGYNEFLLWKSRPCYGLNDIIGLINKNSFLYAKRQMTFFAKISDVLWLHPEDDLDNILNLIFKVDKEI”, the protein production was “failed”. For “MKEEIVNERQCETEDEKIDIQQLLFKYIIHWPWFVGAVLVCLIGAWIYLRMATPVYNISATVLIKDDKKGGNTGSMVGLEELGLSGLISSSQNIDNELEVLRSKTLVKEVINLLNLYVSYTDEDGFPSKNMYKTSPVLVSLTPQEAEKLTDPMVVEMALYGEGGLEVNVTVGDKEYQKHFEKLPAVFPMDEGTLAFFQSPDSLSLKKDTMEASSNIRHITAKIKSPMKVARAYCENLKIEPTSKTTSVAVISLKNSSLQRGQDFINQLLEMYNRNTNNDKNEIAQKTAEFIDERINIISKELGSTEANLENFKRNAGITDLTSEAQIALTGNAEYEKKRVENRTQISLIEDLRKYIRGNEYEVLPGNIGLQDPGLVATIERYNEMLVERKRLLRTSTENNPTIINLDTSIRAMKSNVQATLDGSLKGLLITKADLEREASRFSRRISDAPGQERQFVSIARQQEIKAGLYLMLLQKREENAIALAATANNAKIIDEAIADDIPVSPKRRMIYLIALVLGIGIPVGIIYLIGLTKFKLEGRADVEKLTTIPIVGDIPLTDEKNEKDGSIAVFENQNNLMSETFRNIRTNLQFMLQNDKKVILVTSTVSGEGKSFISANLAISLSLLGKKVVIVGLDIRKPGLNKVFRLSTKEKGITLYLANPETDLMSLVQPSDINQNLYILPGGTVPPNPTELLARDGLDKAIEILKKNFDYVILDTAPVGMVTDTLLIGRVADLSVYVCRADYTHKVEYTLINELAEEKKLPNLCTVINGVDLKRRKYGYYYGYGKYGKYYGYGKRYGYGYGYGQEKGAKS”, the protein production was “failed”. For “MKEELKREYERIKDRISPEEFEELIEKKKEELGDIGFMDDLTIASTVVDDILKEKNTMLSEKPEHRMDTISKLEEGAETPVTGRVMKISSPRTFTTRKGREGKLANVIIADDTGELRAVFWTENIKLLKKFREGDVIRIKDVNIRGGFGGRKEAHLMPRSTVEVLDPEDYPEFPEYREEITPIGDLVEDDEVNVIARITGVSRVRTFERDGREGRFISLDIMDATGSTTYTLWNNDVNLVEELGLKEGDAVKILWAQPRRRDDKVTLTHTSLTRVVPGEYDVPEFREELVKIGDLHEMRNVTVMGLVTKVNDPVEFERNDGTTGSVKSIEIADDTGSARVTLWDEDTRIKINKGDIIRISGANVEFDDFNQSYRINTNFNTRITLNPESDGALLKVLEEYREQMRPMKISEILEMEDEGEEVDVVGRIFSLSDPREFEREDGTGIVRSMELADETGKIRISLWDEKAEKPMNIGDAVRIENARIRLGLYSVELSAGRTTRIVNPLPEDMEDLPSFEELEEMLYQTKKIADLEEDDRNIRIIARVVDLFEPREFQRGDGTPGLVRTAEFADDTGSIRASLWDDAAEKPLSIGDPVKIENPRVVFRDDMGGGRLETQHRKQFKD”, the protein production was “failed”. With “MKEFRKILEDKAFFFTTLYILISFLVFKIFPDVFAVIVLMVFFTLLLDPVIRFLEKLKFGKYFSRVAALLLFFFVMVYSLYMIIPPVFNEFGSFIEFMTKVFESKIWKDYIKSPELMPVFDKIMNFLEPKLTDFLNYVFSLVTTNFVSVTTIIVFTLFGLGYTVFYIREIASFFVLIYPKSVRAEAREFFRDVYASMGRYIRVIFINAVIIGLSYWIVFEAFNLKYSAIISLWAFVTNFIPIVGVVLEYIPVLLFSLTLGVKGVLLIALFAILIHAVAFVVFIQLMKGLEKLNPVYIILSILFFGKLFGLFGSFVGVPLALFFKVFWRKFLRPLFEAG” the protein production was “failed”. With “MKEGIELNTKKRIIGLDFARALAMFGMLLVNFMVITGAEGNGPPFLITLMSLFEGRASALFVILAGIGISLMTRSSVARNEKIKISNSRKIIWKRALFLFILGLLLYVMEWTGDILHYYGVYLFVAALLITVRKKALLFLSIIILLLAQSLQLTFNAFEGWGGPTPFINYVDFWTVNGFLRNLFFNGYHPFSHRFSFFLIGMIIGRLDLHNKKIRDRLLLLGITFTILIELLSKGLTYYFIPHIGKAAATFLFNTGPVLPNVLYILSATGSAIAILILCLYITEKYENNWFVTSIIQTGQLTLTHYVSHVFIGIGTLILFNRMEHQTLLFVLLFATVFFIFSILFSVLWRKKFSRGPIEWIMRKLAS” the protein production was “not failed”. In the case of “MKEICMLLVAVILWGTAIAPTKWALESIQPFTLLFIRLFFAGGICMIFSFKELQKSVVHKKVPWKRMSLLAFTGVAGYFMFTSYGISLTSGLHVSIIDAALPLVTILFSALFLKEEIRLNYWIGIILGAIGVLFITIPSKSANQEVSLIGDILILLSTFLFAFYTVLLKRPKQEQYLSNEVFTTLTLIIGAVILLPFALVEIFYYGLPKVETWKTVLSVIYLVIGATILAYWFWNKALERVSASVSGLYLNALPLISIITSIILLNESLTWRVIMGASLVLIGVGWADKQKLCNLLKGNKVENRDC”, the protein production is reported as “failed”.
